The source of these data is patent US20180371095A1 (published 2018).

This assay has as its target T1, HEK293 cells transfected with recombinant human VSIG3-eGFP (human, UniProt Q5DX21 23-431).
T1 construct: whole, on cells; not shown: eGFP
T1 sequence (looked up): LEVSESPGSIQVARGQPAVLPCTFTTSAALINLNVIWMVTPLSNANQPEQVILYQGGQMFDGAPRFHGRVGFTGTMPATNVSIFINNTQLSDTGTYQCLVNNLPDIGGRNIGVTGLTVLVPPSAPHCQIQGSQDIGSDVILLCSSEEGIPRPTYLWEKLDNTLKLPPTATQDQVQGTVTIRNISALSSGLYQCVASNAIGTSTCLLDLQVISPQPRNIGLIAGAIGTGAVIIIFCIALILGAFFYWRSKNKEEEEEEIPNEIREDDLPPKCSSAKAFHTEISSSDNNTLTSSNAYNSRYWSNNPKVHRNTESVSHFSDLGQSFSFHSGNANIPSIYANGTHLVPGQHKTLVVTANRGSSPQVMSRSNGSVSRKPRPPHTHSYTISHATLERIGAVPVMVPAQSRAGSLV
Briefly: flow cytometry, anti-Fc APC detection. (A flow cytometer gives signals particle by particle.)

B1: recombinant human Siglec-7 (rhSiglec-7)/Fc protein (Fc fusion, UniProt Q9Y286 19-357, looked up)
chain: QKSNRKDYSLTMQSSVTVQEGMCVHVRCSFSYPVDSQTDSDPVHGYWFRAGNDISWKAPVATNNPAWAVQEETRDRFHLLGDPQTKNCTLSIRDARMSDAGRYFFRMEKGNIKWNYKYDQLSVNVTALTHRPNILIPGTLESGCFQNLTCSVPWACEQGTPPMISWMGTSVSPLHPSTTRSSVLTLIPQPQHHGTSLTCQVTLPGAGVTTNRTIQLNVSYPPQNLTVTVFQGEGTASTALGNSSSLSVLEGQSLRLVCAVDSNPPARLSWTWRSLTLYPSQPSNPLVLELQVHLGDEGEFTCRAQNSLGSQHVSLNLSLQQEYTGKMRPVSGVLLGAVG
notes: also called Fc-tagged Siglec7 protein; human Siglec-7 Fc protein; not shown: human IgG Fc region
Turning to B1, the binding result is on record as “no binding”.
